Target: WT1 peptide … (VLD peptide) pulsed on OCI-AML3 target cells
Experiment: cell-based or functional assay

B1: WT1 targeting transgenic T cell receptor (tgTCR) (TCR, V domains shown)
V domain 1: DAGVIQSPRHEVTEMGQEVTLRCKPISGHDYLFWYRQTMMRGLELLIYFNNNVPIDDSGMPEDRFSAKMPNASFSTLKIQPSEPRDSAVYFCASRKTGGYSNQPQHFGDGTRLSILE
V domain 2: SQQPVQSPQAVILREGEDAVINCSSSKALYSVHWYRQKHGEAPVFLMILLKGGEQKGHEKISASFNEKKQQSSLYLTASQLSYSGTYFCGTAWINDYKLSFGAGTTVTVRA
In the case of B1, the “Cumulative Fold Change in T cell number after stimulation 1 with OCI-AML3 cells pulsed with 500 nM VLD peptide, EP + AAV engineered T cells” value is reported as 7.9 fold, the “Cumulative Fold Change in T cell number after stimulation 1 with OCI-AML3 cells pulsed with 500 nM VLD peptide, LNP + AAV engineered T cells” value is reported as 7.2 fold and the “Cumulative Fold Change in T cell number after stimulation 2 with OCI-AML3 cells pulsed with 500 nM VLD peptide, EP + AAV engineered T cells” value is reported as 19 fold. The “Cumulative Fold Change in T cell number after stimulation 2 with OCI-AML3 cells pulsed with 500 nM VLD peptide, LNP + AAV engineered T cells” value was 34.2 fold, the “Cumulative Fold Change in T cell number after stimulation 3 with OCI-AML3 cells pulsed with 500 nM VLD peptide, EP + AAV engineered T cells” value was 27.1 fold and the “Cumulative Fold Change in T cell number after stimulation 3 with OCI-AML3 cells pulsed with 500 nM VLD peptide, LNP + AAV engineered T cells” value was 120 fold.
